Here are results for one molecule from PMC2173048 (The Journal of Cell Biology, 2002).

This test concerns the target T1, recombinant Kap121p (yeast, UniProt P32337 1-1089).
T1 sequence (looked up): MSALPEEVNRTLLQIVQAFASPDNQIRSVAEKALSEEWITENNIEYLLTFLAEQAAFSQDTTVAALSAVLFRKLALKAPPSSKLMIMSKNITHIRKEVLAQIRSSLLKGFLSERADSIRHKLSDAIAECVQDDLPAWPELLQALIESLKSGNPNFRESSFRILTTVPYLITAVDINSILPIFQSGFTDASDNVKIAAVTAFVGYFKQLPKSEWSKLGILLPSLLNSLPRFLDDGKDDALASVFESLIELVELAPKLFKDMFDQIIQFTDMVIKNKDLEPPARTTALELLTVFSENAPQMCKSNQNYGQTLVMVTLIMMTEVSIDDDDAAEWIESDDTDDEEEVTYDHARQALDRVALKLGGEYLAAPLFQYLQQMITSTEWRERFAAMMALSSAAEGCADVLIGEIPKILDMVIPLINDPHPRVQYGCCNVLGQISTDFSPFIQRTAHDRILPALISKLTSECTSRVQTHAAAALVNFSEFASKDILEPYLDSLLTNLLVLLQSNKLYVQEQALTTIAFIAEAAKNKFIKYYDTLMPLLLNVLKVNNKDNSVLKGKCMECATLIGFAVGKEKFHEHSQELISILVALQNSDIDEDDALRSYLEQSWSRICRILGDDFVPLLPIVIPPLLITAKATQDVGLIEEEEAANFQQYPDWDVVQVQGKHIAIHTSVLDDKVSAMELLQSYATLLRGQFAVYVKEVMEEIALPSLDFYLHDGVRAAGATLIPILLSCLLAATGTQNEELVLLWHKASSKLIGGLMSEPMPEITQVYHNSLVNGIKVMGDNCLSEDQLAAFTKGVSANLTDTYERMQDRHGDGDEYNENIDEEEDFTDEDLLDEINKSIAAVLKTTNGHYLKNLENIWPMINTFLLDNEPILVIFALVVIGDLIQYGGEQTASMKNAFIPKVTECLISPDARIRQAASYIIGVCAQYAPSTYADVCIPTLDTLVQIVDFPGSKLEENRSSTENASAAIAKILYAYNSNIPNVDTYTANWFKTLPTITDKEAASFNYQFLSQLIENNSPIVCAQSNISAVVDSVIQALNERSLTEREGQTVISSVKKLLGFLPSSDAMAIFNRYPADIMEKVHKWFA
In words: pull-down.

With RNAEFKVSKNSTSFKNPRRLEIKDGRSLFLRNRGKIHSGVLSSIESDL (domain or fragment, yeast, UniProt Q03790 401-448, looked up) [GST-401–448], the binding result is reported as “binds”.
